The nature of the data set: yeast display, Sf9 membrane polyspecificity reagent, FACS + sequencing; frameworks hold sequencing errors. The gist of the method: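 Nanobodies from a synthetic yeast display library (Saccharomyces cerevisiae BJ5465), induced 36–48 hours with galactose, were stained 1 hour at 4 °C with 10% biotinylated, detergent-solubilized Sf9 membrane reagent, enriched on streptavidin microbeads, then FACS-sorted. Anti-HA (expression) and streptavidin (reagent binding) fluorescence set low and high (top ~1%) gates. Polyreactivity labels come from the gate of origin. Genes were colony-PCR amplified, MiSeq 2 × 250 sequenced and filtered by CDR length.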
With “QVQLVESGGGLVQAGGSLRLSCAASGFTFVWYAMGWYRPAPGKERELVAAISRRGTRTYYADSVKGRFTISRDNAKNTVYLQMNSLKPEDTAVYYCAASNGYQAVTYDYWGQGTQVTVSS”, the “polyreactivity (PSR sort gate)” value is listed as “high polyreactivity”. In the case of “QVQLVESGGGLVQAGGSLRLSCAASGFTFVWYVMGWYRQAPGKEREFVAAITSTGGNTNYADSVKGRFTISRDNAKNTVYLEMNSLKPEDTAVYYCAKRYGFPPGYYYWGQGTQVTVSS”, the “polyreactivity (PSR sort gate)” value is recorded as “low polyreactivity”. For “QVQLVESGGGLVQAGGSLRLSCAASGFTFVYNALGWYRQAPGKERELVAAISGSGGSTYYADSVKGRFTISRDNAKNTVYLQMNSLKPEDTSVYYCNAVPSWRWEYDHWGQGTQVTVSS” the value was “high polyreactivity”. For “QVQLVESGGGLVQAGGSLRLSCAASGFTFVYNAMGWYRQAPGKERELVAAINSGGRTNYADSVKGRFTISRDNAKNTVYLQMNSLKPEDTAVYYCAAEVTSFSFGGDATEYYWGQGTQVTVSS” the value was “low polyreactivity”; for “QVQLVESGGGLVQAGGSLRLSCAASGFTFVYNAMGWYRQAPGKERELVAAISKSGDRTYYADSVKGRFTISRDYAKNTVYLQMNSLKPEDTAVYYCNAKVVHGYQRFNYWGQGTEVTVSS”, “high polyreactivity”; for “QVQLVESGGGLVQAGGSLRLSCAASGFTFVYYAMGWYRPAPGKERELVAAISRGGSTYYADSVKGRFTISRDNAKNTVYLQMNSLKPEDTAVYYCNAKKSGLYVSYPAYDYWGQGTQVTVSS”, “low polyreactivity”. For “QVQLVESGGGLVQAGGSLRLSCAASGFTFVYYAMGWYRQAPGKERELVAGISSSAGSTYYADSVKGRFTISRDNAKNTVYLQMNSLKPEDTAVYYCNAEYYWWPFDYWGQGTQVTVSS” the value was “high polyreactivity”; for “QVQLVESGGGLVQAGGSLRLSCAASGFTFVYYAMGWYRQAPGKEREMVAGISSSDTTSYADSVKGRFTISRDNAKNTVYLQMNSLKPEDTEVYYCATRYWRRYPSTWSYPYYYWGQGTQVTVSS”, “high polyreactivity”. For “QVQLVESGGGLVQAGGSLRLSCAASGFTFVYYAMGWYRQAPGTERELVAAISQSGSSTYYADSVKGRFTISRDNAKNTVYLQMNTLKPEDTAVYYCAAQEFQKRLGGSWWRYDYWGQGTQVTVSS”, the “polyreactivity (PSR sort gate)” value is “high polyreactivity”. Regarding “QVQLVESGGGLVQAGGSLRLSCAASGFTFVYYVMGWYRQAPGKERELVAAINAGGGSTYYADSVKGRFTISRDNAKNTVYLQMNSLKPEDTAVYYCYARVRVRLGRNWSSYYYWGQGTQVNVSS”, the “polyreactivity (PSR sort gate)” value was “high polyreactivity”. For “QVQLVESGGGLVQAGGSLRLSCAASGFTFWEYAMGWYRQAPGKERELVAAISRGTSTYYADSVKGRFTISRDNAKNTVYLQMNSLKPEDTAVYYCAAAPSYYPARHGYWGQGTQVTVSS” the value was “low polyreactivity”; for “QVQLVESGGGLVQAGGSLRLSCAASGFTFWLYAMGWYRQAPGKERELVAAISRNSVSTYYADSVKGRFTISRDNAKNTVYLQMNSLKPEDTAVYYCAVDQYATDDYWGQGTQVTVSS”, “high polyreactivity”; for “QVQLVESGGGLVQAGGSLRLSCAASGFTFWRNAMGWYRQAPGKERELVAAISSGTGRTYYADSVKGRFTISRDNAKNTVYLQMNSLKPEDTAVYYCAKVNGRTSYGTSTRDYWGQGTQVTVSS”, “low polyreactivity”. On to “QVQLVESGGGLVQAGGSLRLSCAASGFTFWRNTMGWYRQAPGKEREFVAGISGSGGSTYYADSVKGRFTISRDNAKNTVYLQMNSLKPEDTAVYYCAAVYRFSRTFYTPGYDYWGQGTQVTVSS”, for which the “polyreactivity (PSR sort gate)” value is on record as “high polyreactivity”. For “QVQLVESGGGLVQAGGSLRLSCAASGFTFWRYAMGWYRQAPGKERELVAVITRRGGSTYYADSVKGRFTISRDNAKNTVYLQMNSLKPEDTAVYYCAAGPVSQQHSPGPHDYWGQGTQVTVSS” the value was “high polyreactivity”. For “QVQLVESGGGLVQAGGSLRLSCAASGFTFWSYAMGWYRQAPGKERELVAGITIDGNTYYADSVKGRFTISRDNAKNTVYLQMNSLKPEDTAVYYCATPVYRSTYEYDYWGQGTQVTVSS” the value was “low polyreactivity”. For “QVQLVESGGGLVQAGGSLRLSCAASGFTFWSYGMGWYRQAPGKERELVAAISWSGGRTYYADSVKGRFTISRDNAKNTVYLQMNSLKPDDTAVYYCAAQPYYYFDEYTQYDYWGQGTQVTVSS” the value was “high polyreactivity”. Turning to “QVQLVESGGGLVQAGGSLRLSCAASGFTFWTYAMGWYRQAPGKERELVAAISRSAGRTYYADSVKGRFTISRDNAKNTVYLQMNSLKPEDTAVYYCNARAGYVRYGYWGQGTQVTVSS”, the “polyreactivity (PSR sort gate)” value is “high polyreactivity”.

In the case of “QVQLVESGGGLVQAGGSLRLSCAASGFTFWWYAMGWYRQAPGKERELVASIDTRGGTYYADSVKGRFTISRDNAKNTVYLQMNSLKPEDSAVYYCNADGAYGNYRGGYWGQGTEVTVSS”, the “polyreactivity (PSR sort gate)” value is “high polyreactivity”. For “QVQLVESGGGLVQAGGSLRLSCAASGFTFWWYAMGWYRQAPGKERQLVAGITSGASTYYADSVKGRYTISRDNAKNTVYLQMNSLKPEDTAVYYCAADWLGWYQPYDYWGQGTQVTVSS” the value was “low polyreactivity”; for “QVQLVESGGGLVQAGGSLRLSCAASGFTFWYYAMGWYRQAPGKERELVAAISSNGASTYYADSVKGRFTISRDNAKNTVYLQMNSLKPEDTAVYYCNAYYDTWDSAYDYDYWGQGTQVTVSS”, “low polyreactivity”. For “QVQLVESGGGLVQAGGSLRLSCAASGFTFWYYAMGWYRQAPGKERELVAAITEDGDSTYYADSVKGRFTISRDNAKNTVYLQMNSLKPEDTAVYYCNTDLTFNGTSGDYDYWGQGSQVTVSS” the value was “low polyreactivity”; for “QVQLVESGGGLVQAGGSLRLSCAASGFTFWYYVMGWYRQAPGKERELVAAITSSGDSTYYADSVKGRFTISRDNAKNTVYLQMNSLKPEDTAVYYCAAQRYPFERDYWGQCTQVTVSS”, “high polyreactivity”. For “QVQLVESGGGLVQAGGSLRLSCAASGFTFYANAKGWYRQAPGKERELVAAIDQSGTSTNYADSVKGRFTISRDNAKNTVYLQMNSLKPDDTAVYYCAADSSFYYYPLILFWGDYWGQGTQVTVSS” the value was “low polyreactivity”; for “QVQLVESGGGLVQAGGSLRLSCAASGFTFYAYAMGWYRPAPGKERELVAGISWSGGSTYYADSVKGRFTISRDNAKNTVYLQMNSLKPEDTAVYYCAAYSIAELWEYYYWGQGTQVTVSS”, “low polyreactivity”. For “QVQLVESGGGLVQAGGSLRLSCAASGFTFYDNAMGWYRQAPGKERELVAAITSNGVNTHYADSVKGRFTISRDNAKNTVYLQMNSLKPEDTAVYYCAADRDPEVTYQKYEYWGQGTQVTVSS”, the “polyreactivity (PSR sort gate)” value was “low polyreactivity”.

In the case of “QVQLVESGGGLVQAGGSLRLSCAASGFTFYDYAMGWYRQAPGKERELVAAISSGTSTYYADSVKGRFTISRDNAKNTVYLQMNSLKPEDTAVYYCAAAGNRPWSITPVRKRYGYNYWGQGTQVTVSS”, the “polyreactivity (PSR sort gate)” value was “high polyreactivity”. In the case of “QVQLVESGGGLVQAGGSLRLSCAASGFTFYDYAMGWYRQAPGKERELVAVITRRGGSTYYADSVKRRFTISRDNAKKTVDLQMNSLKPEDTAVYDCAADWRGWSFVRGDDYWGHGTQVTVSS”, the “polyreactivity (PSR sort gate)” value was “high polyreactivity”. For “QVQLVESGGGLVQAGGSLRLSCAASGFTFYDYSMGWYRQAPGTERELVAASSDSGGITYYADSVKGRFTISRDNAKNTVYLQMNRLKPEDTAVYYCAADFATPGPEYDYWGQGTQVTVSS” the value was “low polyreactivity”; for “QVQLVESGGGLVQAGGSLRLSCAASGFTFYFYAMGWYRQAPGKERELVAAISRGGSTTYADSVKGRFTISRDNAKNTVYLQMNSLIPEDTAVSYCKADIYTWFQIGGYQYDYWGQGTQVTVSS”, “low polyreactivity”.
